We go through one molecule from paper PMC13274938.

In this assay the target is Q23-APEX-GT2 trimer (Q23-APEX-GT1-T132R-S158T) (HIV-1 (Q23.17)). Briefly: cryo-EM structure.

B1: CH70-Apex2.01 Fab (Fab, V domains shown)
VH: QVQLQESGPGLVKPSETLSLTCAVSGGSISDDYYWTWIRQPPGKGLEWIGYIYGDGGDTKYNPSLKNRVTISIDTSKNHFSLKVNSMTGADTAVYYCAREGRGQFWYDEDYGQFYVPGGLDSWGQGVVVTVSS
VL: DIQMTQTPLSLSVSPGEPASISCRSSQSLLHTDGYDYLDWYLQKPGQSPQLLIYGGSDRPSGVPDRFSGSGSGTDFTLKISRVEAEDVGVYYCMQHKALPRTFGQGTKVEIK
As for B1, the stoichiometry N (Fab per trimer) worked out at 1.
